In US20260152567A1 (CSPC MEGALITH BIOPHARMACEUTICAL, published 2026):
Changes are numbered by the printed parent chain.

T1: human CD73 on the cell surface (MDA-MB-231 and SKOV3 tumor cells) (human, UniProt P21589 27-549)
T1 construct: whole, on cells; also called cell surface CD73; CD73 on the surface of human tumor cells
T1 sequence (looked up): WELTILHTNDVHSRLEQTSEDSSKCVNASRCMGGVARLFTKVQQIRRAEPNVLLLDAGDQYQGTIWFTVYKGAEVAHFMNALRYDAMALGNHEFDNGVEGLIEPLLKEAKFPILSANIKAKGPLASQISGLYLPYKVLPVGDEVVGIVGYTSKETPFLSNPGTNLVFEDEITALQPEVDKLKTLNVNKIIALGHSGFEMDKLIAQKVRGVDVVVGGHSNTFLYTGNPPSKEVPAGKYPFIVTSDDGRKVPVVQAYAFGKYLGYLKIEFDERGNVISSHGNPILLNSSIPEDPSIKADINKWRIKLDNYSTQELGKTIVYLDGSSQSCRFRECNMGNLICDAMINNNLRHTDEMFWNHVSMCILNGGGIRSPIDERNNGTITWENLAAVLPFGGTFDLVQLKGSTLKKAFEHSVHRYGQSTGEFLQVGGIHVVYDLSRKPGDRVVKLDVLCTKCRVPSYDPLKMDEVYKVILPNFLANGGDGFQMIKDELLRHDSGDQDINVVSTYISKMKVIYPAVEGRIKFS

T2: recombinant human CD73 protein (human, UniProt P21589 27-547)
T2 construct: Bought soluble protein; The background says that CD73 forms a homodimer; also called soluble CD73; free CD73 protein
T2 sequence (looked up): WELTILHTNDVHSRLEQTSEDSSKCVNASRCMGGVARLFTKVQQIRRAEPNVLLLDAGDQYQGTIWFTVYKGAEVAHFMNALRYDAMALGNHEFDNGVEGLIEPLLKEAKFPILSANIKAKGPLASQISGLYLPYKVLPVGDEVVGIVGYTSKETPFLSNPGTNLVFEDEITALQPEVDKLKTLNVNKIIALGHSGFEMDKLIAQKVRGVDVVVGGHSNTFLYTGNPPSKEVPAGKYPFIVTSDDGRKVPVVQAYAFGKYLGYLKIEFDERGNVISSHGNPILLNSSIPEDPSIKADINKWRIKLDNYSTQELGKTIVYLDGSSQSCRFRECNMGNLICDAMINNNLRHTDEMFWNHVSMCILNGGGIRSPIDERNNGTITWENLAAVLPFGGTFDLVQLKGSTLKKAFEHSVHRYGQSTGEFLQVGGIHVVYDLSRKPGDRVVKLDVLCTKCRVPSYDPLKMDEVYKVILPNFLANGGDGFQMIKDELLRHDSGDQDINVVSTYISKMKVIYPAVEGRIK

T3: cynomolgus monkey CD73 protein (cynomolgus monkey, UniProt A0A2K5V5U7 27-547)
T3 construct: construct not described
T3 sequence: T2 sequence (looked up) with M199T, T350A, V466I

B1: MEDI9447 (antibody, V domains shown)
VH: EVQLLESGGGLVQPGGSLRLSCAASGFTFSSYAYSWVRQAPGKGLEWVSAISGSGGRTYYADSVKGRFTISRDNSKNTLYLQMNSLRAEDTAVYYCARLGYGRVDEWGRGTLVTVSS
VL: QSVLTQPPSASGTPGQRVTISCSGSLSNIGRNPVNWYQQLPGTAPKLLIYLDNLRLSGVPDRFSGSKSGTSASLAISGLQSEDEADYYCATWDDSHPGWTFGGGTKLTVLG
B2: 7C3C2-hIgG1 (antibody, V domains shown)
VH: QVQLQQSGPELVKPGASVKLSCKASGYTFTSYDINWVKQRPGQGLEWIGWIYPRDGFTKYNEKFKGKATLTVDTSSSTAYMELHSLTSEDSAVYFCARKEGYRGDWYFDVWGTGTTVTVSS
VL: DIQMTQSPASLSASVGETVTITCRASGNVHNYLAWYQQKQGKSPQLLVYNAKTLADGVPSRFSGSGSGTQYSLKINSLQPEDFGSYYCQHFWSTPWTFGGGTELEIKR
notes: Human-mouse chimeric antibody, expressed in HEK293, Protein A purified; also called 7C3C2 chimeric antibody
B3: Hab7C3C2.9 (antibody, human IgG1, kappa, L234A L235A, V domains shown)
VH: QVQLVQSGAEVKKPGASVKVSCKASGYTFTSYDINWVRQATGQGLEWMGWIYPRDGFTKYAQKFQGRVTITVNTSISTAYMELSSLRSEDTAVYYCARKEGYRGDWYFDVWGQGTTVTVSS
VL: DIQMTQSPSSLSASVGDRVTITCRASGNVHNYLAWYQQKPGKAPKLLLYNAKTLASGVPSRFSGSGSGTDYTLTISSLQPEDFATYYCQHFWSTPWTFGGGTELEIKR
notes: Humanized 7C3C2; also called Huab7C3C.9
B4: 1F2F9-hIgG1 (antibody, V domains shown)
VH: QVQLQQPGTELVKPGASVKLSCKASGYTFTSYWMHWVKQRPGHGLEWIGNINPSNGGTKYNEKFKSKATLTVDKSSSTAYLQLSSLTSEDSAVYYCARRDYGSPSYWGQGTLVTVSA
VL: DIKMTQSPSSIYASLGERVTITCKASQDINSYLTWFQQKVGKSPKTLIYRTNILLDGVPSRFSGSGSGQDYSLTISSLDYEDMGIYHCLQYHEFPVTFGAGTKLELKR
notes: Human-mouse chimeric antibody, expressed in HEK293, Protein A purified; also called 1F2F9 chimeric antibody
B5: Hab1F2F9.12 (antibody, human IgG1, kappa, L234A L235A, V domains shown)
VH: QVQLVQSGAEVKKPGASVKVSCKASGYTFTSYWMHWVRQAPGQRLEWMGNINPSNGGTKYNEKFQGRVTITVDTSASTAYMELSSLRSEDTAVYYCARRDYGSPSYWGQGTTVTVSS
VL: DIQMTQSPSSLSASVGDRVTITCKASQDINSYLTWFQQKPGKAPKSLIYRTNILLDGVPSRFSGSGSGTDYTLTISSLQPEDFATYYCLQYHEFPVTFGGGTKLEIKR
notes: Humanized 1F2F9; also called Huab1F2F9.12

Assays:
[1] = target: T1, human CD73 on the cell surface …; experiment: flow cytometry on SK-OV-3 cells
Protocol: (§1) In this example, the exemplary antibodies of the present application were compared with anti-CD73 antibodies described in other patent applications. Antibodies MEDI9447 and Hu101-28 (with CDR sequences from PCT patent applications WO 2016/075099 and WO 2018/137598, respectively) were cloned into eukaryotic expression vectors containing the hIgG1-kappa constant region. The binding ability of the humanized antibodies Hab7C3C2.5 and Hab1F2F9.15 to cell surface CD73 was assessed using tumor cell lines MDA-MB-231 and SKOV3 which endogenously express human CD73 on the cell surface. The cells were seeded in a 96-well plate at a density of 2×10⁶ cells/mL, with 100 μL per well. 4-fold gradient dilutions (0-100 nM) of the antibodies were added, and the mixture was incubated at 4° C. for 1 h. A goat anti-human secondary antibody was added, and the mixture was incubated at 4° C. in the dark for 50 min for labeling. The fluorescence intensity of the cells was then measured by a flow cytometer.

[2] = target: T1, human CD73 on the cell surface …; experiment: flow cytometry on MDA-MB-231 cells
Protocol: as §1

[3] = target: T2, recombinant human CD73 protein; experiment: ELISA, plate coated with recombinant human CD73 at 1 µg/mL
Protocol: The obtained eukaryotic expression vectors were transiently transferred into HEK293 cells, and the cells were then cultured for 6 days. The culture supernatants were harvested and purified by a ProteinA column to obtain the target antibodies, which were named 7C3C2-hIgG1 and 1F2F9-hIgG1, respectively. The affinity of the antibodies for the recombinant human CD73 protein (as described in Example 1) was determined using ELISA method. A elisa plate was coated with the recombinant human CD73 protein at a concentration of 1 μg/mL and washed 3 times with a PBST buffer. Then, the plate was blocked with a PBS buffer containing 2% BSA at 37° C. for 2 h and washed 3 times with a PBST buffer. 5-fold gradient dilutions (0-133.3 nM) of the test antibodies were added, and the mixture was incubated at 37° C. for 2 h. The plate was further washed 3 times with a PBST buffer. A horseradish peroxidase-labeled secondary antibody was added, and the mixture was incubated at 37° C. for 1 h. The plate was then washed 3 times with a PBST buffer. Chromogenic reaction was performed, and the absorbance values were read after the reaction was terminated.

[4] = target: T2, recombinant human CD73 protein; experiment: BLI (Fortebio), human CD73 on HIS1K biosensors, antibody as analyte
Protocol: The humanized antibody VH and VL were separately constructed into eukaryotic expression vectors containing the hIgG1-kappa constant region with L234A, L235A, P329A and P331S mutations (abbreviated as hIgG1 in the present application). The affinity of all humanized antibodies was assayed in this example. Human CD73 protein was immobilized onto HIS1K biosensors to achieve a binding response threshold of 0.3 nm. After a 120-second baseline step, the sensors were separately immersed in anti-CD73 antibody analytes diluted in a gradient with a 0.02% PBST buffer (each antibody was diluted in a 2-fold gradient with an initial concentration of 25 nM, resulting in 7 concentration gradients). The times for the ligand-analyte binding and dissociation were 120 s and 300 s, respectively. The data of the antigen-antibody affinity were calculated by regression according to the binding curves using an analysis software.

[5] = target: T3, cynomolgus monkey CD73 protein; experiment: BLI (Fortebio), cynomolgus CD73 on HIS1K biosensors, antibody as analyte
Protocol: In this example, the cross-binding ability of the exemplary humanized anti-CD73 antibodies of the present application to cynomolgus monkey CD73 was assayed by a Fortebio experiment. The specific implementation steps included immobilizing the cynomolgus monkey CD73 protein onto HIS1K biosensors. […] The times for the ligand-analyte binding and dissociation were 120 s and 300 s, respectively. The data of the antigen-antibody affinity were calculated by regression according to the binding curves using an analysis software.

| Binder | EC50 [1] [nM] | EC50 [2] [nM] | EC50 [3] [nM] | Kd [4] [nM] | koff [4] [s⁻¹] | kon [4] [M⁻¹ s⁻¹] | Kd [5] [nM] | koff [5] [s⁻¹] | kon [5] [M⁻¹ s⁻¹] |
| --- | --- | --- | --- | --- | --- | --- | --- | --- | --- |
| B1 | 0.17 | 0.49 |  |  |  |  |  |  |  |
| B2 |  |  | 0.017 |  |  |  |  |  |  |
| B3 |  |  |  | 1.03 | 0.00381 | 3.7e+06 | 0.852 | 0.00388 | 4.56e+06 |
| B4 |  |  | 0.028 |  |  |  |  |  |  |
| B5 |  |  |  | 0.72 | 0.00133 | 1.85e+06 | 0.681 | 0.00152 | 2.22e+06 |
